1 molecule from PMC4961225, “The Molecular Basis for Ubiquitin and Ubiquitin-like Specificities in Bacterial Effector Proteases” (Molecular Cell, 2016) can be followed below.

In this assay the target is T1, ubiquitin (uniformly 15N-labeled Ub) (UniProt P0CG48 1-76).
T1 construct: also called 15N-Ub
As to the kind of experiment: NMR titration; uniformly 15N-labeled Ub observed (1H,15N-HSQC TROSY; 80 μM Ub in Figure 6), unlabeled partner added; 25°C. To be noted: both partners purified.

B1: SseL (aa 24–340) (domain or fragment)
chain: VSDEALTLLFSAVENGDQNCIDLLCNLALRNDDLGHRVEKFLFDLFSGKRTGSSDIDKKINQACLVLHQIANNDITKDNTEWKKLHAPSRLLYMAGSATTDLSKKIGIAHKIMGDQFAQTDQEQVGVENLWCGARMLSSDELAAATQGLVQESPLLSVNYPIGLIHPTTKENILSTQLLEKIAQSGLSHNEVFLVNTGDHWLLCLFYKLAEKIKCLIFNTYYDLNENTKQEIIEAAKIAGISESDEVNFIEMNLQNNVPNGCGLFCYHTIQLLSNAGQNDPATTLREFAENFLTLSVEEQALFNTQTRRQIYEYSLQ
B1: the binding result was “binds”.
